The values below come from doi:10.1101/2020.04.14.040436, “Molecular basis for the recognition of steroidogenic acute regulatory protein by the 14-3-3 protein family” (bioRxiv, 2020).

Series [1] addresses T1, STARD1_(46-285)-S56A/L59P phosphorylated at Ser57 and Ser195 (human, UniProt P49675 46-285, S56A | L59P, phosphoserine at 57; phosphoserine at 195).
T1 sequence: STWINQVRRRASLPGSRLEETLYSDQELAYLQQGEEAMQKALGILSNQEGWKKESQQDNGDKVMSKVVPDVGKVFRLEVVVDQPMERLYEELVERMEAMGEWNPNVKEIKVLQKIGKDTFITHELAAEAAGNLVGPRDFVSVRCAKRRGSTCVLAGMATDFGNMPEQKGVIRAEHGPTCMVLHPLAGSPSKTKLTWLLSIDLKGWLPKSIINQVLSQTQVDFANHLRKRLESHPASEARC
The experiment in a line: SPR.

Series [2] concerns the target T1, STARD1_(46-285)-S56A/L59P …. The experiment in a line: SPR. This is another data set of the same source. Background: Surface plasmon resonance follows binding to a sensor surface in real time, without labels.
Series [3] concerns the molecule itself. The experiment in a line: crystal structure; phosphorylated chimeras of 14-3-3σΔC with the STARD1 peptide joined by a GSGSL linker; sitting-drop vapor diffusion; data at 100 K.
Series [4] has as its target T2, wild-type full-length human 14-3-3γ (human, UniProt P61981 1-247).
T2 construct: 14-3-3γ, human, wild type, full length; Called untagged in the preparation of the heterodimer; also called untagged 14-3-3γ
T2 sequence (looked up): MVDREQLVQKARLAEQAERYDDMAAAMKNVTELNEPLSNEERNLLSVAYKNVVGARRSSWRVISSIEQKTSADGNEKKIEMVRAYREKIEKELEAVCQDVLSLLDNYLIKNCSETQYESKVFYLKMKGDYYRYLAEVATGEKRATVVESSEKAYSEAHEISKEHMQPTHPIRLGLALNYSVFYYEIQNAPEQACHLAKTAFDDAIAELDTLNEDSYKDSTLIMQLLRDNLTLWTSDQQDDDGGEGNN
The experiment in a line: time-resolved fluorescence anisotropy; 1 µM 22NC, 10 µM pSTARD1, 100 µM 14-3-3γ; 20 mM Tris-HCl pH 7.5, 150 mM NaCl, 5 mM MgCl2; 25 °C; correlation time of the 22NC bound to STARD1. As to conditions: both partners purified. Background: Fluorescence polarisation rises when a labelled molecule tumbles more slowly, as on binding a larger partner.

B1: 14-3-3ε/γ heterodimer (His6-tagged 14-3-3ε with untagged 14-3-3γ) (complex)
chain 1: MDDREDLVYQAKLAEQAERYDEMVESMKKVAGMDVELTVEERNLLSVAYKNVIGARRASWRIISSIEQKEENKGGEDKLKMIREYRQMVETELKLICCDILDVLDKHLIPAANTGESKVFYYKMKGDYHRYLAEFATGNDRKEAAENSLVAYKAASDIAMTELPPTHPIRLGLALNFSVFYYEILNSPDRACRLAKAAFDDAIAELDTLSEESYKDSTLIMQLLRDNLTLWTS
chain 2: MVDREQLVQKARLAEQAERYDDMAAAMKNVTELNEPLSNEERNLLSVAYKNVVGARRSSWRVISSIEQKTSADGNEKKIEMVRAYREKIEKELEAVCQDVLSLLDNYLIKNCSETQYESKVFYLKMKGDYYRYLAEVATGEKRATVVESSEKAYSEAHEISKEHMQPTHPIRLGLALNYSVFYYEIQNAPEQACHLAKTAFDDAIAELDTLNEDSYKDSTLIMQLLRDNLTLWTSDQQDDDGGEGNN
The term koff denotes the rate constant with which the complex falls apart. Low readings indicate a long-lived complex, high ones a short-lived complex. The molecule B1 had a dissociation rate constant (koff) in series [1] of 0.0057 s⁻¹. Further, the Ka in series [2] amounted to 67000 M⁻¹.

B2: His6-tagged 14-3-3ε (natural protein)
chain: MDDREDLVYQAKLAEQAERYDEMVESMKKVAGMDVELTVEERNLLSVAYKNVIGARRASWRIISSIEQKEENKGGEDKLKMIREYRQMVETELKLICCDILDVLDKHLIPAANTGESKVFYYKMKGDYHRYLAEFATGNDRKEAAENSLVAYKAASDIAMTELPPTHPIRLGLALNFSVFYYEILNSPDRACRLAKAAFDDAIAELDTLSEESYKDSTLIMQLLRDNLTLWTS
In the case of B2, the koff in series [1] was determined as 0.0058 s⁻¹. This molecule also displayed a Ka in series [2] of 77000 M⁻¹.

B3: chimeric 14-3-3σΔC protein with the STARD1 Ser195 phosphopeptide (other, human)
chain: MERASLIQKAKLAEQAERYEDMAAFMKGAVEKGEELSCEERNLLSVAYKNVVGGQRAAWRVLSSIEQKSNEEGSAAAGPEVREYREKVETELQGVCDTVLGLLDSHLIKEAGDAESRVFYLKMKGDYYRYLAEVATGDDKKRIIDSARSAYQEAMDISKKEMPPTNPIRLGLALNFSVFHYEIANSPEEAISLAKTTFDEAMADLHTLSEDSYKDSTLIMQLLRDNLTLWTGSGSLRRGSTCVLA
modifications: phosphoserine at Ser195 of the STARD1 peptide
notes: 14-3-3σ, human, without the C-terminal tail (14-3-3σΔC core); linker; steroidogenic acute regulatory protein STARD1 (StAR), human, stretch around Ser195; also called protein with fused Ser195 peptide; not shown: His, N-terminal, cleaved
As to B3, in series [3], the binding result is “binds”.

B4: STARD1_(46-285)-S56A/L59P phosphorylated at Ser57 and Ser195 (domain or fragment, human, UniProt P49675 46-285, looked up)
chain: STWINQVRRRASLPGSRLEETLYSDQELAYLQQGEEAMQKALGILSNQEGWKKESQQDNGDKVMSKVVPDVGKVFRLEVVVDQPMERLYEELVERMEAMGEWNPNVKEIKVLQKIGKDTFITHELAAEAAGNLVGPRDFVSVRCAKRRGSTCVLAGMATDFGNMPEQKGVIRAEHGPTCMVLHPLAGSPSKTKLTWLLSIDLKGWLPKSIINQVLSQTQVDFANHLRKRLESHPASEARC
modifications: phosphoserine at 57; phosphoserine at 195
notes: steroidogenic acute regulatory protein STARD1 (StAR), human, residues 46-285 of the 285-residue pre-protein; also called pSTARD1; pSTARD1_(46-285)-S56A/L59P
As to B4, the binding result in series [4] is “binds”.
